From the supplement of paper PMC10567573 come the findings set out here.

Sequences and labels used below:
B1: ZNF232 (parent)
chain: HSGEKPFICKECGKAYGWCSELIR
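Also: lentivirally expressed fusions sorted by FACS into six bins by GFP to DsRed ratio, PSI derived from sequencing read proportions per bin multiplied by bin number.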

The variants in the data set derive from B1. Description: protein stability index of a GFP-peptide fusion (GPS, HEK-293T) (PSI 1-6); higher = more stable. As to conditions: c terminus: a fixed tail appended.
As for HSGEKPFICKECGKAYGWYSELIR [C19Y], the protein stability index amounted to 1.54.
With HSGEKPFICKECGKAYGWQSELIR [C19Q] the figure was 2.39; with HSGEKPFICKECGKAYGWDSELIR [C19D], 1.94; with HSGEKPFICKECGKAYGWGSELIR [C19G], 1.89.
The value for HSGEKPFICKECGKAYGWTSELIR [C19T] was 2.09; that for HSGEKPFICKECGKAYGWISELIR [C19I] was 1.89; that for HSGEKPFICKECGKAYGWKSELIR [C19K] was 2.08.
With HSGEKPFICKECGKAYGWVSELIR [C19V] the figure was 1.68.
As to HSGEKPFICKECGKAYGWPSELIR [C19P], the protein stability index amounted to 2.03.
The value for HSGEKPFICKECGKAYGWLSELIR [C19L] was 1.69; that for HSGEKPFICKECGKAYGWFSELIR [C19F] was 1.69.
The value for HSGEKPFICKECGKAYGWASELIR [C19A] was 2.06; that for HSGEKPFICKECGKAYGWSSELIR [C19S] was 2.83.
With HSGEKPFICKECGKAYGWRSELIR [C19R] the figure was 1.73; with HSGEKPFICKECGKAYGWESELIR [C19E], 2.5; with HSGEKPFICKECGKAYGWNSELIR [C19N], 2.08.
As to HSGEKPFICKECGKAYGWHSELIR [C19H], the protein stability index stood at 1.82.
With HSGEKPFICKECGKAYGWWSELIR [C19W] the figure was 1.37; with HSGEKPFICKECGKAYGWMSELIR [C19M], 2.13; with HSGEKPFICKECGKAYGICSELIR [W18I], 2.46.
Consider HSGEKPFICKECGKAYGHCSELIR [W18H], for which the protein stability index turned out to be 2.28.
With HSGEKPFICKECGKAYGVCSELIR [W18V] the figure was 2.25; with HSGEKPFICKECGKAYGQCSELIR [W18Q], 2.49; with HSGEKPFICKECGKAYGMCSELIR [W18M], 2.57.
As for HSGEKPFICKECGKAYGECSELIR [W18E], the protein stability index is 2.95.
With HSGEKPFICKECGKAYGNCSELIR [W18N], the protein stability index was 2.03.
With HSGEKPFICKECGKAYGSCSELIR [W18S] the figure was 2.67; with HSGEKPFICKECGKAYGCCSELIR [W18C], 2.18.
The value for HSGEKPFICKECGKAYGACSELIR [W18A] was 1.85.
The value for HSGEKPFICKECGKAYGYCSELIR [W18Y] was 1.79; that for HSGEKPFICKECGKAYGGCSELIR [W18G] was 2.43.
Regarding HSGEKPFICKECGKAYGRCSELIR [W18R], the protein stability index was determined as 1.9.
HSGEKPFICKECGKAYGPCSELIR [W18P]: the protein stability index came to 1.81.
Take HSGEKPFICKECGKAYGKCSELIR [W18K]: the protein stability index turned out to be 1.78.
The value for HSGEKPFICKECGKAYGFCSELIR [W18F] was 1.55.
With HSGEKPFICKECGKAYGDCSELIR [W18D] the figure was 2.67.
Turning to HSGEKPFICKECGKAYGTCSELIR [W18T], the protein stability index came to 1.83.
The value for HSGEKPFICKECGKAYGLCSELIR [W18L] was 2.09; that for HSGEKPFICKECGKAYGWCMELIR [S20M] was 1.75; that for HSGEKPFICKECGKAYGWCHELIR [S20H] was 2.33.
The value for HSGEKPFICKECGKAYGWCEELIR [S20E] was 2.07.
The value for HSGEKPFICKECGKAYGWCPELIR [S20P] was 1.87; that for HSGEKPFICKECGKAYGWCTELIR [S20T] was 2.11.
Regarding HSGEKPFICKECGKAYGWCRELIR [S20R], the protein stability index is 3.24.
In the case of HSGEKPFICKECGKAYGWCCELIR [S20C], the protein stability index is 2.96.
HSGEKPFICKECGKAYGWCVELIR [S20V]: the protein stability index came to 2.
The value for HSGEKPFICKECGKAYGWCYELIR [S20Y] was 1.7; that for HSGEKPFICKECGKAYGWCGELIR [S20G] was 1.96; that for HSGEKPFICKECGKAYGWCIELIR [S20I] was 2.17.
HSGEKPFICKECGKAYGWCNELIR [S20N]: the protein stability index was determined as 2.1.
With HSGEKPFICKECGKAYGWCLELIR [S20L] the figure was 1.39; with HSGEKPFICKECGKAYGWCDELIR [S20D], 1.72.
With HSGEKPFICKECGKAYGWCQELIR [S20Q] the figure was 1.98; with HSGEKPFICKECGKAYGWCAELIR [S20A], 2.34; with HSGEKPFICKECGKAYGWCFELIR [S20F], 2.11.
For HSGEKPFICKECGKAYGWCKELIR [S20K], the protein stability index worked out at 2.2.
With HSGEKPFICKECGKAYGWCWELIR [S20W] the figure was 1.77.
On to HSGEKPFICKECGKAYGWCSRLIR [E21R], for which the protein stability index turned out to be 1.99.
For the variant HSGEKPFICKECGKAYGWCSHLIR [E21H], the protein stability index came out at 3.87.
With HSGEKPFICKECGKAYGWCSLLIR [E21L] the figure was 2.2; with HSGEKPFICKECGKAYGWCSTLIR [E21T], 2.3.
With HSGEKPFICKECGKAYGWCSYLIR [E21Y] the figure was 2.12; with HSGEKPFICKECGKAYGWCSMLIR [E21M], 2.07; with HSGEKPFICKECGKAYGWCSILIR [E21I], 2.07.
With HSGEKPFICKECGKAYGWCSKLIR [E21K] the figure was 2.26; with HSGEKPFICKECGKAYGWCSPLIR [E21P], 2.5; with HSGEKPFICKECGKAYGWCSALIR [E21A], 2.27.
Turning to HSGEKPFICKECGKAYGWCSSLIR [E21S], the protein stability index stood at 1.21.
On to HSGEKPFICKECGKAYGWCSFLIR [E21F], for which the protein stability index is 1.92.
In the case of HSGEKPFICKECGKAYGWCSQLIR [E21Q], the protein stability index is 2.31.
The value for HSGEKPFICKECGKAYGWCSDLIR [E21D] was 1.86; that for HSGEKPFICKECGKAYGWCSVLIR [E21V] was 2.84.
With HSGEKPFICKECGKAYGWCSWLIR [E21W] the figure was 2.11.
As to HSGEKPFICKECGKAYGWCSGLIR [E21G], the protein stability index is 2.18.
The value for HSGEKPFICKECGKAYGWCSCLIR [E21C] was 2.8.
The value for HSGEKPFICKECGKAYGWCSNLIR [E21N] was 1.38.
HSGEKPFICKECGKAYGWCSECIR [L22C]: the protein stability index turned out to be 4.76.
Take HSGEKPFICKECGKAYGWCSEYIR [L22Y]: the protein stability index was determined as 2.18.
The value for HSGEKPFICKECGKAYGWCSEKIR [L22K] was 1.96; that for HSGEKPFICKECGKAYGWCSESIR [L22S] was 1.92; that for HSGEKPFICKECGKAYGWCSEIIR [L22I] was 1.73.
The value for HSGEKPFICKECGKAYGWCSENIR [L22N] was 1.81; that for HSGEKPFICKECGKAYGWCSEGIR [L22G] was 2.
With HSGEKPFICKECGKAYGWCSEAIR [L22A], the protein stability index is 2.24.
The value for HSGEKPFICKECGKAYGWCSEWIR [L22W] was 1.67.
The value for HSGEKPFICKECGKAYGWCSEDIR [L22D] was 2.3.
The value for HSGEKPFICKECGKAYGWCSEFIR [L22F] was 1.94; that for HSGEKPFICKECGKAYGWCSEQIR [L22Q] was 1.65.
HSGEKPFICKECGKAYGWCSEVIR [L22V]: the protein stability index was 2.09.
With HSGEKPFICKECGKAYGWCSEEIR [L22E] the figure was 2.11; with HSGEKPFICKECGKAYGWCSEPIR [L22P], 3.26.
As for HSGEKPFICKECGKAYGWCSETIR [L22T], the protein stability index is 1.72.
The value for HSGEKPFICKECGKAYGWCSEHIR [L22H] was 3.29; that for HSGEKPFICKECGKAYGWCSERIR [L22R] was 2.08.
